Measurements: US8936925B2, “Reconstitution of 5-enolpyruvylshikimate-3-phosphate synthase activity by fragment complementation” (priority 2004, dated 2015)

B1: N224: E. coli EPSPS N-terminal fragment, N-terminus to residue 224 (protein, UniProt P0A6D3 1-224, looked up, fragment)
chain: MESLTLQPIARVDGTINLPGSKSVSNRALLLAALAHGKTVLTNLLDSDDVRHMLNALTALGVSYTLSADRTRCEIIGNGGPLHAEGALELFLGNAGTAMRPLAAALCLGSNDIVLTGEPRMKERPIGHLVDALRLGGAKITYLEQENYPPLRLQGGFTGGNVDVDGSVSSQFLTALLMTAPLAPEDTVIRIKGDLVSKPYIDITLNLMKTFGVEIENQHYQQFV
B2: C228: E. coli EPSPS C-terminal fragment, residue 228 to C-terminus (protein, UniProt P0A6D3 228-427, looked up, fragment)
chain: GQSYQSPGTYLVEGDASSASYFLAAAAIKGGTVKVTGIGRNSMQGDIRFADVLEKMGATICWGDDYISCTRGELNAIDMDMNHIPDAAMTIATAALFAKGTTTLRNIYNWRVKETDRLFAMATELRKVGAEVEEGHDYIRITPPEKLNFAEIATYNDHRMAMCFSLVALSDTPVTILDPKCTAKTFPDYFEQLARISQAA
B3: N227: E. coli EPSPS N-terminal fragment, N-terminus to residue 227 (protein, UniProt P0A6D3 1-227, looked up, fragment)
chain: MESLTLQPIARVDGTINLPGSKSVSNRALLLAALAHGKTVLTNLLDSDDVRHMLNALTALGVSYTLSADRTRCEIIGNGGPLHAEGALELFLGNAGTAMRPLAAALCLGSNDIVLTGEPRMKERPIGHLVDALRLGGAKITYLEQENYPPLRLQGGFTGGNVDVDGSVSSQFLTALLMTAPLAPEDTVIRIKGDLVSKPYIDITLNLMKTFGVEIENQHYQQFVVKG
B4: C246: E. coli EPSPS C-terminal fragment, residue 246 to C-terminus (protein, UniProt P0A6D3 246-427, looked up, fragment)
chain: ASYFLAAAAIKGGTVKVTGIGRNSMQGDIRFADVLEKMGATICWGDDYISCTRGELNAIDMDMNHIPDAAMTIATAALFAKGTTTLRNIYNWRVKETDRLFAMATELRKVGAEVEEGHDYIRITPPEKLNFAEIATYNDHRMAMCFSLVALSDTPVTILDPKCTAKTFPDYFEQLARISQAA
B5: N238: E. coli EPSPS N-terminal fragment, N-terminus to residue 238 (protein, UniProt P0A6D3 1-238, looked up, fragment)
chain: MESLTLQPIARVDGTINLPGSKSVSNRALLLAALAHGKTVLTNLLDSDDVRHMLNALTALGVSYTLSADRTRCEIIGNGGPLHAEGALELFLGNAGTAMRPLAAALCLGSNDIVLTGEPRMKERPIGHLVDALRLGGAKITYLEQENYPPLRLQGGFTGGNVDVDGSVSSQFLTALLMTAPLAPEDTVIRIKGDLVSKPYIDITLNLMKTFGVEIENQHYQQFVVKGGQSYQSPGTYL
B6: C235: E. coli EPSPS C-terminal fragment, residue 235 to C-terminus (protein, UniProt P0A6D3 235-427, looked up, fragment)
chain: GTYLVEGDASSASYFLAAAAIKGGTVKVTGIGRNSMQGDIRFADVLEKMGATICWGDDYISCTRGELNAIDMDMNHIPDAAMTIATAALFAKGTTTLRNIYNWRVKETDRLFAMATELRKVGAEVEEGHDYIRITPPEKLNFAEIATYNDHRMAMCFSLVALSDTPVTILDPKCTAKTFPDYFEQLARISQAA
B7: C299: E. coli EPSPS C-terminal fragment, residue 299 to C-terminus (protein, UniProt P0A6D3 299-427, looked up, fragment)
chain: GELNAIDMDMNHIPDAAMTIATAALFAKGTTTLRNIYNWRVKETDRLFAMATELRKVGAEVEEGHDYIRITPPEKLNFAEIATYNDHRMAMCFSLVALSDTPVTILDPKCTAKTFPDYFEQLARISQAA
B8: C225: E. coli EPSPS C-terminal fragment, residue 225 to C-terminus (protein, UniProt P0A6D3 225-427, looked up, fragment)
chain: VKGGQSYQSPGTYLVEGDASSASYFLAAAAIKGGTVKVTGIGRNSMQGDIRFADVLEKMGATICWGDDYISCTRGELNAIDMDMNHIPDAAMTIATAALFAKGTTTLRNIYNWRVKETDRLFAMATELRKVGAEVEEGHDYIRITPPEKLNFAEIATYNDHRMAMCFSLVALSDTPVTILDPKCTAKTFPDYFEQLARISQAA
B9: N240: E. coli EPSPS N-terminal fragment, N-terminus to residue 240 (protein, UniProt P0A6D3 1-240, looked up, fragment)
chain: MESLTLQPIARVDGTINLPGSKSVSNRALLLAALAHGKTVLTNLLDSDDVRHMLNALTALGVSYTLSADRTRCEIIGNGGPLHAEGALELFLGNAGTAMRPLAAALCLGSNDIVLTGEPRMKERPIGHLVDALRLGGAKITYLEQENYPPLRLQGGFTGGNVDVDGSVSSQFLTALLMTAPLAPEDTVIRIKGDLVSKPYIDITLNLMKTFGVEIENQHYQQFVVKGGQSYQSPGTYLVE
B10: C239: E. coli EPSPS C-terminal fragment, residue 239 to C-terminus (protein, UniProt P0A6D3 239-427, looked up, fragment)
chain: VEGDASSASYFLAAAAIKGGTVKVTGIGRNSMQGDIRFADVLEKMGATICWGDDYISCTRGELNAIDMDMNHIPDAAMTIATAALFAKGTTTLRNIYNWRVKETDRLFAMATELRKVGAEVEEGHDYIRITPPEKLNFAEIATYNDHRMAMCFSLVALSDTPVTILDPKCTAKTFPDYFEQLARISQAA
B11: N234: E. coli EPSPS N-terminal fragment, N-terminus to residue 234 (protein, UniProt P0A6D3 1-234, looked up, fragment)
chain: MESLTLQPIARVDGTINLPGSKSVSNRALLLAALAHGKTVLTNLLDSDDVRHMLNALTALGVSYTLSADRTRCEIIGNGGPLHAEGALELFLGNAGTAMRPLAAALCLGSNDIVLTGEPRMKERPIGHLVDALRLGGAKITYLEQENYPPLRLQGGFTGGNVDVDGSVSSQFLTALLMTAPLAPEDTVIRIKGDLVSKPYIDITLNLMKTFGVEIENQHYQQFVVKGGQSYQSP
B12: C241: E. coli EPSPS C-terminal fragment, residue 241 to C-terminus (protein, UniProt P0A6D3 241-427, looked up, fragment)
chain: GDASSASYFLAAAAIKGGTVKVTGIGRNSMQGDIRFADVLEKMGATICWGDDYISCTRGELNAIDMDMNHIPDAAMTIATAALFAKGTTTLRNIYNWRVKETDRLFAMATELRKVGAEVEEGHDYIRITPPEKLNFAEIATYNDHRMAMCFSLVALSDTPVTILDPKCTAKTFPDYFEQLARISQAA
B13: N259: E. coli EPSPS N-terminal fragment, N-terminus to residue 259 (protein, UniProt P0A6D3 1-259, looked up, fragment)
chain: MESLTLQPIARVDGTINLPGSKSVSNRALLLAALAHGKTVLTNLLDSDDVRHMLNALTALGVSYTLSADRTRCEIIGNGGPLHAEGALELFLGNAGTAMRPLAAALCLGSNDIVLTGEPRMKERPIGHLVDALRLGGAKITYLEQENYPPLRLQGGFTGGNVDVDGSVSSQFLTALLMTAPLAPEDTVIRIKGDLVSKPYIDITLNLMKTFGVEIENQHYQQFVVKGGQSYQSPGTYLVEGDASSASYFLAAAAIKGGT
B14: C260: E. coli EPSPS C-terminal fragment, residue 260 to C-terminus (protein, UniProt P0A6D3 260-427, looked up, fragment)
chain: VKVTGIGRNSMQGDIRFADVLEKMGATICWGDDYISCTRGELNAIDMDMNHIPDAAMTIATAALFAKGTTTLRNIYNWRVKETDRLFAMATELRKVGAEVEEGHDYIRITPPEKLNFAEIATYNDHRMAMCFSLVALSDTPVTILDPKCTAKTFPDYFEQLARISQAA
B15: N298: E. coli EPSPS N-terminal fragment, N-terminus to residue 298 (protein, UniProt P0A6D3 1-298, looked up, fragment)
chain: MESLTLQPIARVDGTINLPGSKSVSNRALLLAALAHGKTVLTNLLDSDDVRHMLNALTALGVSYTLSADRTRCEIIGNGGPLHAEGALELFLGNAGTAMRPLAAALCLGSNDIVLTGEPRMKERPIGHLVDALRLGGAKITYLEQENYPPLRLQGGFTGGNVDVDGSVSSQFLTALLMTAPLAPEDTVIRIKGDLVSKPYIDITLNLMKTFGVEIENQHYQQFVVKGGQSYQSPGTYLVEGDASSASYFLAAAAIKGGTVKVTGIGRNSMQGDIRFADVLEKMGATICWGDDYISCTR
B16: N245: E. coli EPSPS N-terminal fragment, N-terminus to residue 245 (protein, UniProt P0A6D3 1-245, looked up, fragment)
chain: MESLTLQPIARVDGTINLPGSKSVSNRALLLAALAHGKTVLTNLLDSDDVRHMLNALTALGVSYTLSADRTRCEIIGNGGPLHAEGALELFLGNAGTAMRPLAAALCLGSNDIVLTGEPRMKERPIGHLVDALRLGGAKITYLEQENYPPLRLQGGFTGGNVDVDGSVSSQFLTALLMTAPLAPEDTVIRIKGDLVSKPYIDITLNLMKTFGVEIENQHYQQFVVKGGQSYQSPGTYLVEGDASS

Tested on: aroA gene-mutant E. coli strain AB2829
Assay: In vivo complementation: growth on solid M63 restrictive medium
Type: cell-based
Parameters: key: −: failed to grow; +: able to grow
Conditions: for complementation condition, N-terminal: N-terminal fragment alone; for complementation condition, C-terminal: C-terminal fragment alone
Excerpt: The pKU2100 plasmid constructed as described above and corresponding pACYC1184 plasmid were introduced separately or together into the strain AB2829 deficient in E. coli aroA gene. Then, the strain was streaked on solid M63 restrictive medium and cultured overnight to determine the growth.
In order to test if EPSPS achieves fragment complementation after in vivo expression, genes encoding EPSPS N-terminal peptides were constructed into pACYC184, and genes encoding EPSPS C-terminal peptides were constructed into pBR322 (see the section Materials and Methods for the detailed construction method). Afterwards, these plasmids were introduced into aroA gene-mutant E. coli strain AB2829. EPSPS activity of the protein fragments encoded by these genes was determined by the growth of the strains on M63 restrictive medium.
The pACYC184 and pBR322 plasmids are able to be expressed in the same bacterial cell since they have replicons p15A and ColE1 respectively. In this regard, a pACYC184 plasmid was co-introduced into aroA gene-mutant E. coli strain AB2829 together with a corresponding pKU2100 plasmid, wherein the N-terminal peptide encoded by the pACYC184 plasmid and C-terminal peptide encoded by the pKU2100 plasmid are the two fragments divided at the same site from EPSPS. The resulting strains are streaked on M63 restrictive medium, and cultured at 37° C.
The pBR322 plasmids constructed in section 3.5 a and their relevant pACYC1184 plasmids constructed in section 3.5 b were introduced respectively or together into E. coli strain AB2829 deficient in aroA gene. Then the strains were streaked on solid M63 restrictive medium and cultured overnight to test the growth.

Row | Molecule | complementation condition, N-terminal | complementation condition, C-terminal
1 | B1 | − | 
2 | B2 |  | −
3 | B3 | − | 
4 | B4 |  | −
5 | B5 | − | 
6 | B6 |  | −
7 | B7 |  | −
8 | B8 |  | −
9 | B9 | − | 
10 | B10 |  | −
11 | B11 | − | 
12 | B12 |  | −
13 | B13 | − | 
14 | B14 |  | −
15 | B15 | − | 
16 | B16 | − | 
